Data on seven molecules can be found in patent US20230055711A1 (BIOSION, published 2023).

Substitutions are numbered along the chain they refer to. Where two headings read alike, the source gives them in different places.

Test [1] has as its target human BCMA on U266 cells (human) (UniProt Q02223). Description: cell-based or functional assay.
The target in test [2] is recombinant human BCMA-his protein (Acro biosystems, Cat #BCA-H522Y) (human) (UniProt Q02223). Kind of test: SPR Biacore T200, antibody captured on Protein G chip, BCMA-his flowed. On the technique in general: SPR reads the build-up and loss of mass on a sensor chip optically.
For test [3] the target is unchanged. Description: SPR Biacore, antibody captured by anti-human IgG on CM5, BCMA-his flowed.
For test [4] the target is unchanged. Description: capture ELISA: antibody captured on the plate, biotin-labeled human BCMA-his detected with streptavidin-HRP.
The target is the same in test [5]. Description: competitive ELISA: coated human BCMA-his, blocked ligand biotin-labeled BAFF-Fc. (In general: ELISA stands for enzyme-linked immunosorbent assay.)
For test [6] the target is unchanged. Description: competitive ELISA: antibody pre-mixed with biotin-labeled human BCMA-his, competitor coated BCMA BM1 (self-competition).
For test [7] the target is unchanged. Description: BLI Octet RED96, antibody on AHC sensor, BCMA-his in solution. On the technique in general: Biolayer interferometry detects binding as a change in optical thickness at a sensor tip.
Test [8] has the same target. Kind of test: competitive ELISA: antibody pre-mixed with biotin-labeled human BCMA-his, competitor coated BCMA BM1 (self-competition). This is another data set of the same source.
The target is the same in test [9]. Kind of test: capture ELISA: antibody captured on the plate, biotin-labeled human BCMA-his detected with streptavidin-HRP. This is another data set of the same source.
For test [10] the target is unchanged. Kind of test: competitive ELISA: coated human BCMA-his, blocked ligand biotin-labeled BAFF-Fc. This is another data set of the same source.
Test [11] has the same target. Kind of test: competitive ELISA: antibody pre-mixed with biotin-labeled human BCMA-his, competitor coated BCMA BM1.
For test [12] the target is unchanged. Kind of test: SPR Biacore, antibody captured on CM5 chip, BCMA-his flowed.
For test [13] the target is unchanged. Description: competitive ELISA: antibody pre-mixed with biotin-labeled human BCMA-his, competitor coated BCMA BM1. This is another data set of the same source.
The target is the same in test [14]. Kind of test: SPR Biacore T200, antibody captured by anti-mouse IgG on CM5, BCMA-his flowed.
The target in test [15] is T1, human BCMA on U266 cells (human, UniProt Q02223 1-184).
T1 construct: whole, on cells; Endogenous protein of the cell line; also called human BCMA on the cell surface; U266 cells expressing human BCMA
T1 sequence (looked up): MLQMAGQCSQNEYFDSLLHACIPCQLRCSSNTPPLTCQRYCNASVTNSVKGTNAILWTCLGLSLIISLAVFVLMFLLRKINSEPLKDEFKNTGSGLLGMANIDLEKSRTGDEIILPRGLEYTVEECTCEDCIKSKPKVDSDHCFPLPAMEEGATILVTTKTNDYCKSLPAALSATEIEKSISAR
Description: cell based binding FACS on U266 cells, MFI.

In test [16] the target is T2, human BCMA on 293F-BCMA cells (human, UniProt Q02223 1-184).
T2 construct: Stably expressed on 293F cells prepared in house; also called 293F cells expressing human BCMA; Full length human BCMA
T2 sequence: T1 sequence (looked up)
Description: cell based binding FACS on 293F cells expressing human BCMA, MFI.

In test [17] the target is T3, cynomolgus BCMA-his protein (Acro biosystems, Cat #BCA-052H7) (cynomolgus monkey, UniProt A0A2K5UD97 1-53).
T3 construct: Bought; also called cynomolgus monkey BCMA protein; not shown: his tag
Kind of test: indirect ELISA on coated cynomolgus BCMA-his.

For test [18], the target named is T1, human BCMA on U266 cells. Kind of test: cell-based or functional assay.

T3 sequence (A0A2K5UD97 entry or part of it): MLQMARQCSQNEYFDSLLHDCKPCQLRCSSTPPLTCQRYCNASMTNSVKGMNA

As for “isotype control antibody (as isotype control-DT3C conjugate)”, the Max inhibition on cell viability (%), antibody-DT3C conjugate on U266 cells in test [1] is 17.8%.

For the molecule “BCMA BM1, full-length antibody containing the BCMA-binding portion of GSK2857916”, the values for the Kd in test [2], in test [3] and in test [7] were 0.742 nM, 0.578 nM and 0.436 nM, respectively. Also, the koff was 0.000245 s⁻¹ in test [2], 0.000141 s⁻¹ in test [3] and 0.000125 s⁻¹ in test [7]. Moreover, the kon in test [2] was 330000 M⁻¹ s⁻¹; in [3] it was 244000 M⁻¹ s⁻¹; in test [7], 286000 M⁻¹ s⁻¹. Besides, the EC50 stood at 0.569 nM in [4] and 1.11 nM in test [9]. Also, the IC50 came out at 12.6 nM in test [5], 2.64 nM in [6], 2.89 nM in test [8] and 10.7 nM in test [10].

B1: mouse anti-BCMA monoclonal antibody B1H2 (antibody, V domains shown)
VH: EVQLQQSGPELVKPGASVKMSCKASGYTLTNYVMHWMKQKPGQGLEWIGFIIPFNDGTKYNEHFKGKATLTSDKSSNTAYMVLSSLTSEDSAVYYCARYDFEGYFDVWGAGTTVTVSS
VL: DIQMTQTTSSLSASLGDRVTISCSASQDITNFLNWYQQKPDGTVKLLIYSTSRLHSGVPSRFSGSGSGTDYSLTISNLEPEDIATYYCQQYSNLPWTFGGGTNLEIK
notes: Hybridoma-derived mouse mAb purified on Protein A; also called Mouse B1H2; mouse antibody B1H2
In the case of B1, the IC50 worked out at 0.282 nM in test [11], 1.03 nM in test [13], 8.28 nM in [5] and 6.09 nM in test [10]. The values for the Kd in test [12] and in [14] were 0.0757 nM and 0.203 nM, respectively. In addition, the koff in test [12] was found to be 0.000783 s⁻¹; in [14], 0.0011 s⁻¹. In addition, the values for the kon in test [12] and in [14] were 1.03e+07 M⁻¹ s⁻¹ and 5.42e+06 M⁻¹ s⁻¹, respectively. Further, the EC50 with human BCMA on U266 cells [15] stood at 0.885 nM; in test [4] it was 0.177 nM; in test [16], 0.613 nM; in [17], 31.4 nM; in test [9], 0.702 nM.

B2: chimeric B1H2 antibody (antibody, human IgG1, kappa, V domains shown)
VH: B1 VH
VL: DIQMTQTTSSLSASLGDRVTISCSASQDITNFLNWYQQKPDGTVKLLIYSTSRLHSGVPSRFSGSGSGTDYSLTISNLEPEDIATYYCQQYSNLPWTFGGGTNLEIKR
notes: Mouse variable domains fused to human IgG1 / kappa constant regions, made in 293F cells
In the case of B2, the results for the Kd in test [3] and in test [7] were 0.0839 nM and 0.673 nM, respectively. For the same molecule, the EC50 in test [4] was 0.226 nM; in test [16], 0.953 nM; in test [17] it was 190 nM.

B3: huB1H2-V10 (antibody, human IgG1, kappa, V domains shown)
VH: QVQLVQSGAEVKKPGASVKVSCKASGYTLTNYVMHWVRQAPGQGLEWIGFIIPFNDGTKYNEHFKGRVTITSDTSISTAYMQLSSLRSEDTAVYYCARYDFEGYFDVWGQGTLVTVSS
VL: DIQMTQSPSSLSASVGDRVTITCSASQDITNFLNWYQQKPGKAPKLLIYSTSRLHSGVPSRFSGSGSGTDFTLTISSLQPEDIATYYCQQYSNLPWTFGQGTKVEIKR
notes: Humanized IgG1/kappa; cell supernatant in the Octet assay, purified antibody in Biacore, ELISA and FACS
As for B3, the IC50 in test [11] worked out at 1.51 nM; in test [5] it was 10.2 nM. Moreover, the Kd in [3] is 0.289 nM; in test [7], 2.02 nM. Further, the koff was 0.00788 s⁻¹ in test [3] and 0.000733 s⁻¹ in test [7]. In addition, the kon in [3] came out at 2.73e+07 M⁻¹ s⁻¹; in test [7] it was 363000 M⁻¹ s⁻¹. Also, the EC50 is 0.47 nM in test [4], 1.2 nM in test [16] and roughly 25400 nM in [17]. In the test with human BCMA on U266 cells [18], the “IC50 (nM), cell killing activity of antibody-DT3C conjugate on U266 cells (internalization assay)” value (“IC50 (nM), cell killing activity” below) was found to be 0.19 nM. In addition, the “Max inhibition on cell viability (%), antibody-DT3C conjugate on U266 cells” value (shortened to “Max inhibition on cell viability (%)”) in the test with human BCMA on U266 cells [18] amounted to 99.7%.

B4: BCMA BM1, full-length antibody containing the BCMA-binding portion of GSK2857916 (antibody, human IgG1, kappa, V domains shown)
VH: QVQLVQSGAEVKKPGSSVKVSCKASGGTFSNYWMHWVRQAPGQGLEWMGATYRGHSDTYYNQKFKGRVTITADKSTSTAYMELSSLRSEDTAVYYCARGAIYDGYDVLDNWGQGTLVTVSS
VL: B3 VL with T30S, F32Y, S50Y, R53N, I83F, S92R, N93K, V104L
notes: Prepared in house from the full heavy and light chains; also called benchmark; positive control
For the molecule B4, the EC50 with human BCMA on U266 cells [15] is 17.7 nM; in [16] it was 8.86 nM; in test [17] it was 0.186 nM. In addition, the “IC50 (nM), cell killing activity” value with human BCMA on U266 cells [18] was found to be 1.55 nM. The “Max inhibition on cell viability (%)” value with human BCMA on U266 cells [18] came out at 97%.

B5: huB1H2-V33 (antibody, human IgG1, kappa, V domains shown)
VH: B3 VH
VL: B3 VL with L73F
notes: as for B3
With B5, the IC50 came to 1.45 nM in test [11] and 7.05 nM in test [5]. The Kd in test [3] and in [7] was 0.349 nM throughout. Besides, the koff in [3] and in [7] was 0.00341 s⁻¹ in each case. Moreover, the kon in [3] and in [7] was 9.76e+06 M⁻¹ s⁻¹ each time. For the same molecule, the EC50 in test [4] is 0.439 nM; in [16], 0.865 nM; in test [17], roughly 176 nM. In addition, the “IC50 (nM), cell killing activity” value with human BCMA on U266 cells [18] was determined as 0.14 nM. In the test with human BCMA on U266 cells [18], the “Max inhibition on cell viability (%)” value came out at 99.9%.

A word on the Kd: it is the free concentration of one partner at which half of the binding sites on the other are occupied at equilibrium, for simple one-to-one binding. As a reminder, the koff is the first-order rate constant of dissociation. One may read the kon as the second-order rate constant of association. Usually EC50 stands for the midpoint of the concentration-response curve. As a reminder, the IC50 is the concentration at which inhibition is half-maximal.
